From US20210115153A1 (PEPTRON, published 2021)

Molecular target: T1, recombinant hMUC1-C (rhMUC1-C) protein (human, UniProt P15941 961-1152)
T1 construct: Expressed in E. coli Rosetta (not glycosylated), purified from inclusion bodies in 8 M urea over Ni-NTA; also called hMUC1-C terminal protein; not shown: C-terminal His-tag of vector pET-22b
T1 sequence: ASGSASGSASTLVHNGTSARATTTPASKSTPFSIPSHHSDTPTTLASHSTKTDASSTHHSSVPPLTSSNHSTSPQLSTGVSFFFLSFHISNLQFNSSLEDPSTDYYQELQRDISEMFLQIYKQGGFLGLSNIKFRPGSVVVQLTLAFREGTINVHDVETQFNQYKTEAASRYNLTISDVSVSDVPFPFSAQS
Assay: ELISA of hybridoma culture supernatant on coated rhMUC1-C
Protocol: The total amount of rhMUC1-C-specific IgG was measured by ELISA. A 96-well immunoplate was coated with 10 […] of rhMUC1-C protein (Example 2) and blocked with bovine serum albumin (BSA) in PBS-T (PBS containing 0.1% (v/v) Tween-20). The mouse serum immunized in Example 5, hybridoma cell culture supernatant, or purified antibody was diluted with PBS-T and cultured at room temperature for 2 hours. The plate was washed 3 times with PBS-T and cultured with a goat anti-mouse IgG HRP-conjugated secondary antibody for 1 hour. The plate was developed using TMB substrate solutions A and B (1:1 ratio) (Kirkegaard and Perry Laboratories, Gaithersburg, Md., USA), the absorbance was measured at 450 nm using a Spectra Max 250 microplate reader (Molecular Devices, Sunnyvale, USA), and a colorimetric assay was performed.
The spleen cells from mice immunized with rhMUC1-C protein in Example 5 were fused with SP2/0 myeloma cells (ATCC) using polyethylene glycol (PEG, Sigma-Aldrich). The fused cells were cultured and selected as a hypoxanthine-aminopterin-thymidine (HAT, Sigma-Aldrich) medium. The culture supernatant of the selected hybridoma cells was subjected to testing for binding to rhMUC1-C protein through ELISA and hybridoma cells, which were positive for binding, i.e., produced rhMUC1-C protein-specific antibody, were screened. […]

binding result: binds
B1: anti-hMUC1 monoclonal antibody purified from hybridoma hMUC1-1H7 (KCLRF-BP-00395) (antibody, V domains shown)
VH: EVQLQQSGAELAKPGASVKMSCKVSGYTFTSYWMHWVKQRPGQGLEWIGYINPGTGYIEYNQKFKDKATLTADKSSSTAYMQLSSLTSEDSAVYYCASSTAPFDYWGQGTTLTVSS
VL: DIVITQSPSSMYASLGERVTITCKASQDIKSYLSWYQQKPWKSPKTLIYYATRLADGVPSRFSGSGSGQDYSLTISSLESDDTATYYCLQYDESPYTFGGGTKLEIKR
notes: also called anti-hMUC1 antibody; anti-hMUC1-C mouse antibody (1H7)
